Measured values: the DeepSol protein solubility set

Experiment: soluble on expression in E. coli; label from the status in PepcDB or PDB records

Sequence	soluble on expression in E. coli
MSLNALYNSLKQRLESGEWLAGQRMPSIRKLASTSEASYHDAVTAYARLVSEGLLSASPGRGYFVNSGASQAVSPREPECMSADPLFRLLQAGPQYTKLGGGWLPPAWRDTELLAKAIRRTARLEQSSLAEYGDISGYLPMRKQLCVHMKRLTRIDIRPSQVLSTLGATQGLDLVARLLIKAGDHVFVDEPGNGNLIRLIQLAGGHVVGVRRTQDGPDIAEMESYLAKHTVKAFFCNSTFHNPTGSNISPHNAFKVLRLAVEHEFFVVEDDVYGDFSPTVRQTFAELDNLDRVIYIGSFSKCLSASLRVGYIACSQELIEPLTRLKLLTCVAVPAFCERFVNTILADGTYARHMQDVQQRLISQQVQTQRSLLARGWKFDIAPQGGMFIWAYHPDITDLQPFMTKLEQHRILLMPGSAFSVTRDYQRFARINCTHFSEAVEAHFSV	not soluble
MAHHHHHHMLEGPNAEEAKKAILECDGIFVPGGFGKRGVDGKCAAVALARHHNIPYFGVCLGMQVALIQVCREELGWKDANSEEFDPSSTHQIVRIMDCDRHSMGANMHLGARNVHLVEKNSIMSTIYSGADFVVERHRHRYEVNTTYLGQLRGAGVLISGVSDPTFGPHTRVEAIEIPSLRFFLAVQFHPEFVSSPMDPSPPYLAFMAAASKKEYKWPESCAARRVKTL	not soluble
MAHHHHHHMVSVDTSTRRFLEMFCDFDAKRCKLCNETFLQWHIHANGIPHAGREGMLLELVRPYCGTPDELIEMWWQRLNSCAAFHRIPGLSHDNPHERKRRLLYLLKVLKDRGILVETFNVSDNQSTNSARSWEFERLEFVGDNVVKYVLNNIISCAFPPHEGGTKGKMTCFQFVMDGNDGLARGYDHLDLQQLASSPRVVSKFKSDIVETLFAELQMYLWSTQHDIGTCPLVFPFTKDIYTLRALVQHVLYELGIELFLYHIRHINGMLQRVMRENHLQFVKADSALKPRAGARTGSLGVSTRRGDWSDDDDDYDCPQSYGTPAVSAPTAALMKVRSQRTHVQGTGAALFFASTNYDNFKRVVPIGGLLPRPFARQDLSVIPNHMPHLRSDGAMTRRMRRVGNAGWSTLHATATALTTLESVADGLALSAETTPRVGSEPVRLSVPRLKDEELIPELI	not soluble
MSLAEPLTVSPELTANYAYFFDLDGTLAEIKPHPDQVVVPHKILQLLDRLAAHNAGALALISGRSMTELDALAKPFRFPLAGVHGAERRDISGKTHIVRLPEAVVREVEALLRSTLAALPGTELETKGMAFALHYRQAPEHEAALLALAQHVTQHWPQLALQPGKCVVEIKPKGTNKGEAIAAFMQEAPFTGRIPVFVGDDLTDEAGFGVVNHAGGISVKVGVGATQAAWRLESVPDVWRWLEQINYPQQEQQVMNNRRDGYESFSRSIEGHHHHHH	soluble
MGSDKIHHHHHHMVRLRPYRSCDAKYIVTWISSEEEFVKWCANLITYPFTEESMNKIQESFENNEKGWLFTAIDKKGTPIGFMSMSKADYENDSVHLGFIIVDSSKRSSGFGKQMINQAIKYAFEILNVSRVTLKVFDNNSTAHYCYQNVGFVDEKYMEKEFPYKDEMWGCYCMAIQK	not soluble
MGSDKIHHHHHHMEQLRAELSHLLGEKLSRIECVNEKADTALWALYDSQGNPMPLMARSFSTPGKARQLAWKTTMLARSGTVRMPTIYGVMTHEEHPGPDVLLLERMRGVSVEAPARTPERWEQLKDQIVEALLAWHRQDSRGCVGAVDNTQENFWPSWYRQHVEVLWTTLNQFNNTGLTMQDKRILFRTRECLPALFEGFNDNCVLIHGNFCLRSMLKDSRSDQLLAMVGPGLMLWAPREYELFRLMDNSLAEDLLWSYLQRAPVAESFIWRRWLYVLWDEVAQLVNTGRFSRRNFDLASKSLLPWLA	not soluble
MAGTTTYELIDYLEGKDILVVSNGLSHIDTLIQKNIKCYVIGGNIKISTKAITGCDALMCLSKFRFDKCFIGANGVHHTYGLTTPDTEEAILKECAINNSRKAYVLADDSKFGEISTIKFSDINKCVIITNEKPKDNTYDKKTDIKVVDILEHHHHHH	not soluble
MSLQGGIRFSDGIAAVADNEVITRRRLAEAVAEAKANLPKDAQISESELSRQVLMQLVNQSLIVQAGKRRNIQASEAEIDAVVAKNPALKNLSPAQRRDFADNIIAEKVRQQAVMQNSRVSEAEIDAFLEQAQKQGITLPEGAPLRQYRAQHILIKADSENAAVGAESTIRKIYGEARSGTDFSSLARQYSQDASAGNGGDLGWFADGVMVPAFEEAVHALKPGQVGAPVRTQFGWHIIKLNEVRDAGTPQERIRNSVRQYIFQQKAEQATVNLLRDLHSGAYVDIREGHHHHHH	soluble
MSLKVEYFSDSSAVPHLHLENEDSYSVTDDLFIVADGVGSYEGSKDASRYAVNYLSKMAKEIQSKEQLVEEIIKLSEEIKSIGIISGRPLMSTTISVLKISTEKYITANVGDSPIVLLRSGKLYKLYIDDSERSSTGNRFALEQAFGWNHVIVHSFEGKLEKGDLFIICTDGVSDNLSDEYDLYSILRELDAQTIVRLALNKGIKPDDATIIKVYVTMAEGHHHHHH	soluble
MEEKLLVNLKENSYNIFIKKNILKNIGEEIKKIYFGNKIFIVTDENIAKLYLDKVKNNLSESGFEIKSLILKSGEETKSFNTLPKIYDSLLDFKLTRKDLIITLGGGVIGDLGGFAAATFLRGISFIQIPTSLLAQVDSSVGGKVGVDLERGKNLVGSFYQPKAVFIDPNVLLSLPEKFYRDGMAEVIKYGCIKDKTFFNKLLSLKNREEVMQHIEYIIHKCCFIKKTVVEADEKDFGDRMLLNFGHTLGHAIEKYYNFTGYTHGEAVAIGMYKITLESEKIGITKKGTSELIKSILMNYNLPYEIELRDNKSIVDAISLDKKNLGDTLKIILLKDIGESIIYNTTSKFFQEVR	not soluble
MGRRRGFLTMRIPRIYHPEPLTSHSHIALCEDAANHIGRVLRMGPGQALQLFDGSNQVFDAEITSASKKSVEVKVLEGQIDDRESPLHIHLGQVMSRGEKMEFTIQKSIELGVSLITPLFSERCGVKLDSERLNKKLQQWQKIAIAACEQCGRNRVPEIRPAMDLEAWCAEQDEGLKLNLHPRASNSINTLPLPVERVRLLIGPEGGLSADEIAMTARYQFTDILLGPRVLRTETTALTAITALQVRFGDLGLEHHHHHH	not soluble
SNAKIGVLQFVSHPSLDLIYKGIQDGLAEEGYKDDQVKIDFMNSEGDQSKVATMSKQLVANGNDLVVGIATPAAQGLASATKDLPVIMAAITDPIGANLVKDLKKPGGNVTGVSDHNPAQQQVELIKALTPNVKTIGALYSSSEDNSKTQVEEFKAYAEKAGLTVETFAVPSTNEIASTVTVMTSKVDAIWVPIDNTIASGFPTVVSSNQSSKKPIYPSATAMVEVGGLASVVIDQHDLGVATGKMIVQVLKGAKPADTPVNVFSTGKSVINKKIAQELGITIPESVLKEAGQVI	soluble
MGSDKIHHHHHHMDAIDLKRLSDFVRHRQNEDGGFAFCKPLPSTLAETFYAVSILTSIGEDVPRREKVVEFLKSRIQTEINSLFYTLHSLNLLGEDLPDYSSFLLKRLEGLKAERKYLLSDGGVTATYTFLQPNALRDAYMISTLLHLYNRDVPEETKMLVRRYRRETEFGVGYGVKKPNLEETFYASYILRDKAVISFVKSFESNGGFAKQPGGYPPYLEDTYYATSTLSLLSQRYSNPRTAEFIASLQNANGGFRRSIHGGISTLEDSYYAVEVLRRLEFR	not soluble
MGSDKIHHHHHHMGNKTSQKVLLELLKDRDRWVSGNEIADSLGVTRETIWKNINLLKKRGHQIQSQKNLGYKYESSSKLDEVVINFYKNKSVDHVAVEEQVDSTQMYAKNYLATHQVEKAFAVISEQQTQGYGRRGRSFYSPKEQGLYFSIVIPKPTFEINQVGLITTGVAYVIAQTFKDFFPEREFKLKWVNDILMNRRKVAGIITEAITEVESASTQAFVIGVGINLTTPEFPEELQQKAGAIVAKNEPNIDRNLIAAQLINTIVDNWQNYLDGSFLSEYRRMSIVIGKPVTLQVGTKQVKGIATDINEYGNIVVKLDDGQVKAFNNGEITKVNLDW	not soluble
MKRISTLFLLATLGLAAGTAQAAQPDAGLTGCAAKRSAIENQLKIARDHGNSDQVGGLEEALRGVDNCTDASLRKEREQKVLDARHEVAQREKDLKKAEKKGDAEKINKRKDKLAESRKELQEAVDALDR	not soluble
MERVTRKVQVTGGSTYIISLPPEWIKRNNIGKGSEVSVIDQGSDLVVTAPENSEPEITKKITLPGSYTGKPLQRLLTSTYISGFDTLVVVSKDKMTAEMRDDIKRFAKVVMGIEVIEETSRSIVLQNVLNASTFPLQKAIRRMSLNVSTMIEDTIKAIQDEDDDLVENIILRDDEVDRYQWYIYREVKIRCRDDRSNVYILVLSRILERIADHAVNICQAIKNRKGIKGKEKMVENLAYSKDVYNQAMETFYSKNFGEIDGIINRKSEITSRKYELLKILSYDSVLSSVAEEISRIGLYGTDIAELAMDLIMSDKDEFSV	not soluble
MGHHHHHHSHMRTISFFNNKGGVGKTTLSTNVAHYFALQGKRVLYVDCDPQCNATQLMLTEEQTESIYLDGLNDEVAERNSLAKTVYAIFVPLREGESQIAAEITPMRSERFGVDVLPGHPALSQIEDLMSDSWQSALGRQTGPFRRIHWAGQLAHAMERDDRYDVIFFDVGPSLGPFNRTVLLGCDAFVTPTATDLFSFHAFGNLARWFDAWVTQYAEIHEGNMAEWKKYS	not soluble
MRPPPFPKPAHPEEALALQRALAKKVRLAGSLEGVRRIAALDASHKRGRPLVAVALLYDLEKGPLHVATALLPEEALFPYVPGLLSFREAPAYLEALAALPEAPEALLVDGQGVAHPRGLGIASHLGVHLDLPSVGVAKRLLYGRPEAPLPEEKGAAVRLLAPDGRPLGYVYRSRTGVKPLYVSPGHRVGLEEALRFVRRLPTRFRLPEPLRLAHLEAGRALKALDAAALEHHHHHH	not soluble
SMSSHDGLMVFTGNANPALAQEVVKILGIPLGKAMVSRFSDGEIQVEIQENVRGKDVFVLQSTCAPTNDNLMELMIMVDALKRASAGRITAAIPYFGYARQDRRPRSARVAISAKVVANMLEIAGVERIITMDLHADQIQGFFDIPVDNIYATPILLGDLRKQNYPDLLVVSPDVGGVVRARALAKQLNCDLAIIDKRRPKANVAEVMNIIGEVEGRTCVIMDDMVDTAGTLCKAAQVLKERGAKQVFAYATHPVLSGGAADRIAASALDELVVTDTIPLSAESLACPKIRALSSAGLLAETFSRIRRGDSVMSLFAES	soluble
MGSDKIHHHHHHMAVRQDTIWERFLSPVMRLLIDEEGLRRYADSIDWEKEGDRFRRDDVIIPSYYSSQNFHGITGGYLTYNAAVSYDPITQYVVPPNETIVRQALIDAVKVKPRRILDLGCGTGSTTLMLKRAFPEAEVIGLDLSPYMLVRAEDKARNSGLEIVWRHGNAEKTSFRDATFDLVTASLLFHETPNEVSLAILQESFRLLVTGGQVLILDGNQKTLRQLEWLNDVFEEPYIREYAAGSIEANMGAAGFEAVRSQDVWWINQVTGGVKPIATENVRRYTPTSVDNNDLEGLGSPAFGIIA	not soluble
MMLSALVYTYPYKRSSGFERLRDRIHRKRHRHQKPSVMNETDELYEMSMVTQKSDDDSDLASRIRSEKSIPSTLTTPPTVTYHRRHHHHHKKNRREKNEELCESQRKIVELNTQSHEFDPPFVVEVRCLNSQSPIGSLLSGQEQTCFKGMLRCVQQYADVHVSRRSVGSIHWHPFTIPDAPISCQCMWPVDRYGHQEF	soluble
